# Non-standard residues stand in square brackets, D forms with d. No end group written: not given here. pS = N[C@@H](COP(=O)(O)O)C(=O)O; FAM = 5'-fluorescein amidite
# T1: Double-repeated Ser5P (Schizosaccharomyces pombe)
# T1 chain: {FAM}-YSPT[pS]PSYSPT[pS]PS
# T2: S. pombe Pcf11 CID1-139 with an N-terminal His6-SUMO tag (S. pombe)
# T2 chain: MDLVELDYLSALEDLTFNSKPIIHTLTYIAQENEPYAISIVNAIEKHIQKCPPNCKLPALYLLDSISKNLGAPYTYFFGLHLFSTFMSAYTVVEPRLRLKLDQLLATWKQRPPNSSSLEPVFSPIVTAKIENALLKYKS
# T3: S. cerevisiae Pcf11 CID1-144 (S. cerevisiae, UniProt P39081 1-144)
# T3 chain: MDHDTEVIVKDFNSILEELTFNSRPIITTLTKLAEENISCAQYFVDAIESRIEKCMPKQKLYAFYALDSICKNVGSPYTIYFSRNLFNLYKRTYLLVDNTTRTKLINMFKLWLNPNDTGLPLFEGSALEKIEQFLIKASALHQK
# B1: S. pombe Seb1 CID1-148 (domain or fragment)
# chain: MSGIAEFDGILDSLEHSKTGISGSKILKLTNLSMENVSENAQFVASVYKYAKRAPVTHKLGALYILDSIVRSFQDGAKKNNESFENPVDASFSGGWCKAAEITDSLVADAIQHAPSAHLPKILKLCDIWEKASTFPPEKLESLRSKLK
# B2: S. cerevisiae Rtt103 CID (domain or fragment)
# chain: MPFSSEQFTTKLNTLEDSQESISSASKWLLLQYRDAPKVAEMWKEYMLRPSVNTRRKLLGLYLMNHVVQQAKGQKIIQFQDSFGKVAAEVLGRINQEFPRDLKKKLSRVVNILKERNIFSKQVVNDIERSLKTESSPVEALVLPQKLKDFAKDYEKLVKMHH
# B3: S. cerevisiae Nrd1 CID1-152 (domain or fragment)
# chain: MQQDDDFQNFVATLESFKDLKSGISGSRIKKLTTYALDHIDIESKIISLIIDYSRLCPDSHKLGSLYIIDSIGRAYLDETRSNSNSSSNKPGTCAHAINTLGEVIQELLSDAIAKSNQDHKEKIRMLLDIWDRSGLFQKSYLNAIRSKCFAM
# B4: Full-length Seb1 with C-terminal His8-tag (natural protein, S. pombe, UniProt Q9UTE3 1-620, looked up)
# chain: MSGIAEFDGILDSLEHSKTGISGSKILKLTNLSMENVSENAQFVASVYKYAKRAPVTHKLGALYILDSIVRSFQDGAKKNNESFENPVDASFSGGWCKAAEITDSLVADAIQHAPSAHLPKILKLCDIWEKASTFPPEKLESLRSKLKDAMASTEPVSVDSAAAPSQSTNPEGNGGSVGSQAAAPTSRPVENDAASILEALAAFAQKAPVPSAAEESVSTPPQPAVAPSVSAVVPNLPVHPATAINAQSQSGNPLSNPLFQPSNVPQSIPSGPMGMKTGSVNDTQSQQITLMNVLASQNVPPAQIDSIMKAAFPNYNAPFQPAGVGSVPLPAPTSSQSLRLGSLHRSRSPSPRSGRPRRSPSPSHLSIPSTLPPADGVPKPTPDGFPRRFERDPTIPPDSIKVYSRTLFLGGITRSVREPVLRSMFERFGSVQSLILNHNYRHGFLKMFRRDAAEKAQVAMENVPFADTTIRTKWGVGFGPRECSDFSTGISVIPIRLLTDADRTWLVTAEYGGTGGLPITPGIALDEPDIEIGLGISSKAISKRGKDFAMRRDERFRGRKPYRGGPPIHHGERHFDSGNDWHGNPSTVPPPTNPYNPGYPYMDPNYSSGYVSQPPWQPQ
# notes: Seb1, S. pombe, full length; fractions containing monomeric Seb1 were used; also called Seb1(full-length)-His8; recombinant Seb1; source: E. coli Rosetta, purified (Ni-NTA, Superdex 200); not shown: His8, C-terminal, kept
# B5: Rpb4, subunit of S. pombe Pol II (natural protein, UniProt O74825 1-135, looked up)
# chain: MPRAIFEEDAAQLKLGPEFENEDMLTVSEAKILIETVLAQRARETNGEIPMTDVMKKTVAYFNVFARFKTAEATYACERILGNRFHKFERAQLGTLCCEDAEEARTLIPSLANKIDDQNLQGILDELSTLRKFQD
# notes: Rpb4, RNA polymerase II subunit, S. pombe; stood in the assay as a subunit of m11; source: endogenous, S. pombe (Rpb9-Flag strain), purified as part of Pol II (anti-Flag M2 agarose, HiTrap Q)
# B6: Rpb7, subunit of S. pombe Pol II (natural protein, UniProt O14459 1-172, looked up)
# chain: MPFFLKELSLTISLHPSYFGPRMQDYLKAKLLADVEGTCSGQYGYIICVLDSNTIDIDKGRVVPGQGFAEFEVKYRAVLWRPFRGEVVDAIVTTVNKMGFFANIGPLNVFVSSHLVPPDMKFDPTANPPNYSGEDQVIEKGSNVRLKIVGTRTDATEIFAIATMKEDYLGVL
# notes: Rpb7, RNA polymerase II subunit, S. pombe; stood in the assay as a subunit of m11; source: endogenous, S. pombe (Rpb9-Flag strain), purified as part of Pol II (anti-Flag M2 agarose, HiTrap Q)
# B7: Rpb3, subunit of S. pombe Pol II (natural protein, UniProt P37382 1-297, looked up)
# chain: MDSETHITIRNISKNSVDFVLTNTSLAVANSLRRVVLAEIPTVAIDLVEINVNTSVMPDEFLAHRLGMIPLDSSNIDEPPPVGLEYTRNCDCDQYCPKCSVELFLNAKCTGEGTMEIYARDLVVSSNSSLGHPILADPKSRGPLICKLRKEQEISLRCIAKKGIAKEHAKWSPTSAVAFEYDPWNKLQHTDYWFENDADAEWPKSKNADWEEPPREGEPFNFQEEPRRFYMDVESVGSIPPNEIMVQGLRILQEKLAVLVRDLDEEQPTQLSANELNMEENAEMNWSPYQNGEENTW
# notes: Rpb3, RNA polymerase II subunit, S. pombe; stood in the assay as a subunit of m11; source: endogenous, S. pombe (Rpb9-Flag strain), purified as part of Pol II (anti-Flag M2 agarose, HiTrap Q)
# B8: Rpb5, subunit of S. pombe Pol II (natural protein, UniProt Q09191 1-210, looked up)
# chain: MSAEEKNIVRVFRAWKTAHQLVHDRGYGVSQAELDLTLDQFKAMHCGMGRNLDRTTLSFYAKPSNDSNKGTIYIEFAKEPSVGIKEMRTFVHTLGDHNHKTGILIYANSMTPSAAKIIATVTGQFTIETFQESDLIVNITHHELVPKHILLSPDEKKELLDRYKLRETQLPRIQLADPVARYLGLKRGEVVKIVRRSETSGRYNSYRICA
# notes: Rpb5, RNA polymerase subunit, S. pombe; stood in the assay as a subunit of m11; source: endogenous, S. pombe (Rpb9-Flag strain), purified as part of Pol II (anti-Flag M2 agarose, HiTrap Q)
# B9: Rpc10, subunit of S. pombe Pol II (natural protein, UniProt P48011 1-63, looked up)
# chain: MNHPTSTGGTAFNPPRPATMIYLCADCGARNTIQAKEVIRCRECGHRVMYKMRTKRMVQFEAR
# notes: Rpc10, RNA polymerase subunit, S. pombe; stood in the assay as a subunit of m11; source: endogenous, S. pombe (Rpb9-Flag strain), purified as part of Pol II (anti-Flag M2 agarose, HiTrap Q)
# Tests used:
# Double-repeated Ser5P = target: T1, Double-repeated Ser5P; experiment: FP
# [1] = target: T2, S. pombe Pcf11 CID1-139 with an …; experiment: FP
# S. cerevisiae Rtt103 CID = target: B2; experiment: FP
# S. pombe Seb1 CID1-148 = target: B1; experiment: FP
# [2] = target: B3; experiment: FP
# [3] = target: T3, S. cerevisiae Pcf11 CID1-144; experiment: FP
# [4] = target: T4, Rpb1, subunit of S. pombe Pol II (S. pombe, UniProt P36594 1-1752, CTD phosphorylated (Thr4P, Tyr1P, Ser2P, Ser5P detected by western blot)); experiment: cross-linking; BS3 lysine-lysine cross-linking of reconstituted Seb1:Pol II (6:1 or 4:1 molar ratio) in CB buffer (50 mM HEPES pH 7.6, 150 mM NaCl), 30 min at 4 °C, mass spectrometry (pLink); conditions: both partners purified
# T4 construct: Rpb1, largest subunit of RNA polymerase II, S. pombe; stood in the assay as a subunit of m11; source: endogenous, S. pombe (Rpb9-Flag strain), purified as part of Pol II (anti-Flag M2 agarose)
# T4 sequence (P36594 whole entry): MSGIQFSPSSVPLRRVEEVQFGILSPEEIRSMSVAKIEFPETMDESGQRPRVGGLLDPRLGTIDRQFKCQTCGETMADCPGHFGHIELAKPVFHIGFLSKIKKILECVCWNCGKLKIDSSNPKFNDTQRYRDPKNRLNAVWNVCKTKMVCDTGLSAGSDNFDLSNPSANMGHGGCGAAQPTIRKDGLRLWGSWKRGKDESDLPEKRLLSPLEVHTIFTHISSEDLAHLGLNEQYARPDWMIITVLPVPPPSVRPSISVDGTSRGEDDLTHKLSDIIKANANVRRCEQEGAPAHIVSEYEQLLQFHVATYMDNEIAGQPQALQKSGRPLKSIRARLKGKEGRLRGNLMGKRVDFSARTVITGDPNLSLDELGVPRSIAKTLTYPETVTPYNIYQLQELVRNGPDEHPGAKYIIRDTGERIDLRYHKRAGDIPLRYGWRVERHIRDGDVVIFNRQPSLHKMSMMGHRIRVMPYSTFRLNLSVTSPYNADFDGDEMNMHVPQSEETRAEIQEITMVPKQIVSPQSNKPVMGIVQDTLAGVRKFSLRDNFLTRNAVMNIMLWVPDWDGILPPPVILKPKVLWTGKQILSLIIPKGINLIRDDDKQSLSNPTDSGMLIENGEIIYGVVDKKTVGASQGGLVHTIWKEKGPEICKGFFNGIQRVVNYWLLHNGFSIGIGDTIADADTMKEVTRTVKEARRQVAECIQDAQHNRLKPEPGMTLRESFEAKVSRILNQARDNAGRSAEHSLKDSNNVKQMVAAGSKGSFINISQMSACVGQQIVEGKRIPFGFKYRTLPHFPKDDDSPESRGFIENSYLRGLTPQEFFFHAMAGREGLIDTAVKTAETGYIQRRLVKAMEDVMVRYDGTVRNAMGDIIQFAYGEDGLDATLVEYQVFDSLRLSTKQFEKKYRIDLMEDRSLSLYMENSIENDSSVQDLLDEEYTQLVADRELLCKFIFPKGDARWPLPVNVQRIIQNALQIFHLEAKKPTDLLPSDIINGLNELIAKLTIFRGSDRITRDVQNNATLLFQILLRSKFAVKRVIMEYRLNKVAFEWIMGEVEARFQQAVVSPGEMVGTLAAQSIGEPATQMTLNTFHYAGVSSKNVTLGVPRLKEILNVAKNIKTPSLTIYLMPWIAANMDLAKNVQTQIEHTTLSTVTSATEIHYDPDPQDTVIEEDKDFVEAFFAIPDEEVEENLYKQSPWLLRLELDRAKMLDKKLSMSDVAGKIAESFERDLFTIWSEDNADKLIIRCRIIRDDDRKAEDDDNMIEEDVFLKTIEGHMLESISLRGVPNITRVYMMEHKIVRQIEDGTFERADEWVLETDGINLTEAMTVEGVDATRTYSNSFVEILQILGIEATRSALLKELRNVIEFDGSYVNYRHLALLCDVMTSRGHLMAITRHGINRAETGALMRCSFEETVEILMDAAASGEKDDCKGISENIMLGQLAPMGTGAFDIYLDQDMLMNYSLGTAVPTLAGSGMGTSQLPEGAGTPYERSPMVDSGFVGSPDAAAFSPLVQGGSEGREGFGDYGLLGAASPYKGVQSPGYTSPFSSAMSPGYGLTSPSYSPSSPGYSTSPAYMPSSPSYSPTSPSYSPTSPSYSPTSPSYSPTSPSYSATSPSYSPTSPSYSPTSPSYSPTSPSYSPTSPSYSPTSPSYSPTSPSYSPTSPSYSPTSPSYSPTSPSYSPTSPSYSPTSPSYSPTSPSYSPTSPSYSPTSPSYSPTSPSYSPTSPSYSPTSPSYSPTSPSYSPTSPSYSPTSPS
# [5] = target: T5, Rpb2, subunit of S. pombe Pol II (S. pombe, UniProt Q02061 1-1210); experiment: as above; conditions: both partners purified
# T5 construct: Rpb2, RNA polymerase II subunit, S. pombe; stood in the assay as a subunit of m11; source: endogenous, S. pombe (Rpb9-Flag strain), purified as part of Pol II (anti-Flag M2 agarose, HiTrap Q)
# T5 sequence (Q02061 whole entry): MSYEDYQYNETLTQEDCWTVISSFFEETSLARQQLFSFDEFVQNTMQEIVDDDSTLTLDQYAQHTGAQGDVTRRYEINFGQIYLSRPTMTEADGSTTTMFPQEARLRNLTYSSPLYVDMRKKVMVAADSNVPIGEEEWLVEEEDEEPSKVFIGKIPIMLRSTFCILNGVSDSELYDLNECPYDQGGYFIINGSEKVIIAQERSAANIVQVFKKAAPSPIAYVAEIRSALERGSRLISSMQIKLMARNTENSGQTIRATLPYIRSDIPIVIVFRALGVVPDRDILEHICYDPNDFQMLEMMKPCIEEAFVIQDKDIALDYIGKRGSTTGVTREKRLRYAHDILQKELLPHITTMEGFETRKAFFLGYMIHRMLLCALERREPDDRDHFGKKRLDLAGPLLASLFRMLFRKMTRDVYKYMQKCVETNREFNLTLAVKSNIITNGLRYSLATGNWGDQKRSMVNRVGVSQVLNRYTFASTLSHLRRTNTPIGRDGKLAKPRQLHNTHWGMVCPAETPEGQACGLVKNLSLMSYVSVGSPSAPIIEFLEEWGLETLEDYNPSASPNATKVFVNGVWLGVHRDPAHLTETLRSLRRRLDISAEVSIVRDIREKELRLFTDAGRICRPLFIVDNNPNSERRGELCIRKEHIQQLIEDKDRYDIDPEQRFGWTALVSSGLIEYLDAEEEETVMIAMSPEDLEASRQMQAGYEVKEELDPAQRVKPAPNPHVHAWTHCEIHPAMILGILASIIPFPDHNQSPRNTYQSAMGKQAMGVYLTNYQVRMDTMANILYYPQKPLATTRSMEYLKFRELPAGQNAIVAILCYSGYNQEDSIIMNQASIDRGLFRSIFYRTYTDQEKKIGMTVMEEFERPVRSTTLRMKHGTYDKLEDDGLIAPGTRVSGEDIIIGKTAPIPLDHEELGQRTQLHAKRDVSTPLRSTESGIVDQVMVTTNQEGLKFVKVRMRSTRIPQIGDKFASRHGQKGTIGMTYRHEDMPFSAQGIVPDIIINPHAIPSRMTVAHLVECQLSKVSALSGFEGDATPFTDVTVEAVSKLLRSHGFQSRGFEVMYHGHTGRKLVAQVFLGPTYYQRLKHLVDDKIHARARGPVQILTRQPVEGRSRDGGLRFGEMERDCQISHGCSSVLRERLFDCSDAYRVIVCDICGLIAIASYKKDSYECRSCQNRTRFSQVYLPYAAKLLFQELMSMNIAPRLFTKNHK
# [6] = target: B4; experiment: as above; conditions: both partners purified
Binder,Kd (Double-repeated Ser5P) [µM],binding result [6],also measured
B1,281,–,–
"{FAM}-YSPTSPSYSPTSPS (also: phospho-Ser2 of heptad, which repeat not given here) [FAM-labeled two-repeat CTD peptide, Ser2P]",–,–,Kd [1]: 48.1 µM; Kd (S. cerevisiae Rtt103 CID): 32.3 µM; Kd (S. pombe Seb1 CID1-148): 72.3 µM; Kd [2]: 126 µM; Kd [3]: 127 µM
B2,> 1000,–,–
B3,65.8,–,–
B4,–,–,binding result [4]: binds; binding result [5]: binds
B5,–,binds,–
B6,–,binds,–
B7,–,binds,–
B8,–,binds,–
B9,–,binds,–

# — PMC6180485, “Elongation/Termination Factor Exchange Mediated by PP1 Phosphatase Orchestrates Transcription Termination” (Cell Reports, 2018)
